{"source": "patent US20080261903", "proteins": {"B1": {"name": "FLAG-tagged RC Kinase polypeptide (human RC Kinase variant 1, SEQ ID NO: 7, with a FLAG epitope at its amino terminal) (protein)", "chain": "SKKQQLLDILMSSMPKPERHAESLLDICHDTNSSPTDLMTVTKNQNIILQSISRSEEFDQDGDCSHSTLVNEEEDPSGGRQDWQPRTEEFSTSHMKYSGRSIKFLLPPLSLLPTRSGVLTIPQNHKFPKEKERNIPSLTSFVPKLSVSVRQSDELSPSNEPPGALVKSLMDPTLRSSDGFIWSRNMCSFPKTNHHRQCLEKEENWKSKEIEECNKIEITHFEKGQSLVSFENLKEGNIPAVREEDIDCHGSKTRKPEEENSQYLSSRKNESSVAKNYEQDPEIVCTIPSKFQETQHSEITPSQDEEMRNNKAASKRVSLHKNEAMEPNNILEECTVLKSLSSVVFDDPIDKLPEGCSSMETNIKISIAERAKPEMSRMVPLIHITFPVDGSPKEPVIAKPSLQTRKGTIHNNHSVNIPVHQENDKHKMNSHRSKLDSKTKTSKKTPQNFVISTEGPIKPTMHKTSIKTQIFPALGLVDPRPWQLPRFQKKMPQIAKKQSTHRTQKPKKQSFPCICKNPGTQKSCVPLSVQPTEPRLNYLDLKYSDMFKEINSTANGPGIYEMFGTPVYCHVRETERDENTYYREICSAPSGRRITNKCRSSHSERKSNIRTRLSQKKTHMKCPKTSFGIKQEHKVLISKEKSSKAVHSNLHDIENGDGISEPDWQIKSSGNEFLSSKDEIHPMNLAQTPEQSMKQNEFPPVSDLSIVEEVSMEESTGDRDISNNQILTTSLRDLQELEELHHQIPFIPSEDSWAVPSEKNSNKYVQQEKQNTASLSKVNASRILTNDLEFDSVSDHSKTLTNFSFQAKQESASSQTYQYWVHYLDHDSLANKSITYQMFGKTLSGTNSISQEIMDSVNNEELTDELLGCLAAELLALDEKDNNSCQKMANETDPENLNLVLRWRGSTPKEMGRETTKVKIQRHSSGLRIYDREEKFLISNEKKIFSENSLKSEEPILWTKGEILGKGAYGTVYCGLTSQGQLIAVKQVALDTSNKLAAEKEYRKLQEEVDLLKALKHVNIVAYLGTCLQENTVSIFMEFVPGGSISSIINRFGPLPEMVFCKYTKQILQGVAYLHENCVVHRDIKGNNVMLMPTGIIKLIDFGCARRLAWAGLNGTHSDMLKSMHGTPYWMAPEVINESGYGRKSDIWSIGCTVFEMATGKPPLASMDRMAAMFYIGAHRGLMPPLPDHFSENAADFVRMCLTRDQHERPSALQLLKHSFLERSH"}}, "key": {"MEK2, P36507": {"target": "T1, MEK2, P36507", "T1 chain": "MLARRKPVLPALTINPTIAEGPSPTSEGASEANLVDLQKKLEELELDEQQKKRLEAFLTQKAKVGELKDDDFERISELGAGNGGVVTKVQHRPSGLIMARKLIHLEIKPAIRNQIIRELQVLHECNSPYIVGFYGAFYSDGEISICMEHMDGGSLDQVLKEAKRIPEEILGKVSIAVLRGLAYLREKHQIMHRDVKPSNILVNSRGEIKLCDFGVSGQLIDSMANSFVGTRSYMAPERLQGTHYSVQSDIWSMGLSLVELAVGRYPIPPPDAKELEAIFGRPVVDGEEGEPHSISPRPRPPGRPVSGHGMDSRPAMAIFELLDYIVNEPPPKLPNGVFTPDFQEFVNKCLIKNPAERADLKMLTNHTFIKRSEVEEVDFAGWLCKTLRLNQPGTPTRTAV"}, "MKK6, P52564": {"target": "T2, MKK6, P52564", "T2 chain": "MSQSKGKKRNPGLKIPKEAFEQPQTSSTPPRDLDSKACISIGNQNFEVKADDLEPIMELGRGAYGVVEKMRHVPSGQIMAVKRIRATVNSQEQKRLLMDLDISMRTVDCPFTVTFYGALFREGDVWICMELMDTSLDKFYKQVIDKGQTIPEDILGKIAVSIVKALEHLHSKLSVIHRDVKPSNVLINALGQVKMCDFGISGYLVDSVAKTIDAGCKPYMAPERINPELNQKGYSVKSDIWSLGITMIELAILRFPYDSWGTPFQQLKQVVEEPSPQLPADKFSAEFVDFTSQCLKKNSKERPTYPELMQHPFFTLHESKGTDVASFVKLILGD"}, "MKK4, P45985": {"target": "T3, MKK4, P45985", "T3 chain": "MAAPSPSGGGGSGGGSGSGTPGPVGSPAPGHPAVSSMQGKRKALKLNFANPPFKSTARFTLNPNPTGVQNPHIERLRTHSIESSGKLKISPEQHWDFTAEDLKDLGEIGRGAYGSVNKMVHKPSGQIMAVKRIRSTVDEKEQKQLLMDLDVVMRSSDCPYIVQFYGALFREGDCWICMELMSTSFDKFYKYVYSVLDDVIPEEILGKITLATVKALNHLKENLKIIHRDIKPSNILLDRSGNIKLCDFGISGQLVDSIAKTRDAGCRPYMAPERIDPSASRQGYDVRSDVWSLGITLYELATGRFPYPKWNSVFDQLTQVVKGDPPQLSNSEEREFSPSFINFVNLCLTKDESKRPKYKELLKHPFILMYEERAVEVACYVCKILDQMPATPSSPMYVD"}}}
{"protein": "B1", "values": [{"measurement": "phosphorylating activity (in vitro kinase assay, autoradiography after SDS-PAGE)", "setting": "MEK2, P36507", "result": "no detectable activity against MEK2"}, {"measurement": "RC Kinase activity (in vitro kinase assay with labelled ATP, SDS-PAGE, autoradiography)", "setting": "MKK6, P52564", "result": "it has the ability to phosphorylate other RC Kinase polypeptides, MKK4, and MKK6"}, {"measurement": "phosphorylating activity (in vitro kinase assay, autoradiography after SDS-PAGE)", "setting": "MKK6, P52564", "result": "showed only minor activity against MKK6"}, {"measurement": "RC Kinase activity (in vitro kinase assay with labelled ATP, SDS-PAGE, autoradiography)", "setting": "MKK4, P45985", "result": "it has the ability to phosphorylate other RC Kinase polypeptides, MKK4, and MKK6"}, {"measurement": "phosphorylating activity (in vitro kinase assay, autoradiography after SDS-PAGE)", "setting": "MKK4, P45985", "result": "RC Kinase was able to phosphorylate itself and MKK4"}, {"measurement": "RC Kinase activity (in vitro kinase assay with labelled ATP, SDS-PAGE, autoradiography)", "result": "it has the ability to phosphorylate other RC Kinase polypeptides"}, {"measurement": "phosphorylating activity (in vitro kinase assay, autoradiography after SDS-PAGE)", "result": "RC Kinase was able to phosphorylate itself"}]}
